# According to article doi:10.1101/519959:
# T1: DBINO domain of dIno80 (Drosophila melanogaster, UniProt Q9VDY1 228-484)
# T1 sequence: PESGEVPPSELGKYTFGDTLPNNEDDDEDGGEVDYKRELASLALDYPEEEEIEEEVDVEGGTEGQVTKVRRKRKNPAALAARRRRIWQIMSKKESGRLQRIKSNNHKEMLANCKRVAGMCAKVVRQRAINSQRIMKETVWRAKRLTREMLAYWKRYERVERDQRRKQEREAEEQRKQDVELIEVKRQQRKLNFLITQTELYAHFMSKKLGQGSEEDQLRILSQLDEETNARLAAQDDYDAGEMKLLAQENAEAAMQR
# B1: Hs.con (3 copies of Ino80 motif, 33-mer) (dsDNA)
# DNA 1: CCCCGTCAGCCCCCCGTCAGCCCCCCGTCAGCC
# DNA 2: GGCTGACGGGGGGCTGACGGGGGGCTGACGGGG
# Molecular target: T1, DBINO domain of dIno80
# Assay: fluorescent intercalator displacement
binder,measurement,value
B1,Kd,10 µM
